Target: Human epidermal growth factor receptor 2 (HER2) (human, UniProt P04626 23-1255)
Experiment: cell-based or functional assay

B1: 99mTc-ADAPT6 (designed binder)
chain: GSSHHHHHHDEAVDANSLAAAKETALYHLDRLGVADAYKDLIDKAKTVEGVKARYFEILHALP
modifications: also: 99mTc(CO)3 chelated by the His6 subsequence (residues 4-9)
  tumor-to-contralateral breast ratio (SPECT), 2 h after injection of 250 µg: 7.8
  tumor-to-contralateral breast ratio (SPECT), patient 17 (tumor later found FISH-negative), 2 h after injection of 1000 µg: 1.33

Reference: patent US20230165982A1 (HOBER BIOTECH, published 2023)
